molecular target: human GLP-1 receptor (GLP-1R) (human, UniProt P43220 24-463); experiment: cell-based or functional assay

Row | EC50 (nM) measured by cAMP assay | Binder
1 | 0.5 nM | GLP-1(A8G/G22E/R36G)-Fn8-p246-COL15NC1 (ligand) HGEGTFTSDVSSYLEEQAAKEFIAWLVKGGGSGGGSGGGSGGGSGGGSGSGGAVPPPTDLRFTNIGPDTMRVTWAPPPSIDLTNFLVRYSPVKNEEDVAELSISPSDNAVVLTNLLPGTEYVVSVSSVYEQHESTPLRGRQKTGGGGSGGGSGSGSESGSGGGSTSSGTGSETESPGSGSESGSGPSSAGSGSGSESGSGSGSSGPGSTGGSGSESGSGPGSSGTGGTATGSGSESGSGPGSSGPGSTGSGSGSESGSGSGSSGTGSTGGSGSESGSGPGSPRPGSTGTGSGSESGSGPGSSERGSAGGSGSESGSGTSESSASGSTGGSGSESGSGSESGSGSGSESGSGPESPGSGGSGSESGSGTSGSTGSGSESGSGGGSGGGSGGNLVTAFSNMDDMLQKAHLVIEGTFIYLRDSTEFFIRVRDGWKKLQLGELIPIPA
2 | 0.6 nM | GLP-1(A8G/G22E/R36G)-Fn8-p246-COL19NC2 (ligand) HGEGTFTSDVSSYLEEQAAKEFIAWLVKGGGSGGGSGGGSGGGSGGGSGSGGAVPPPTDLRFTNIGPDTMRVTWAPPPSIDLTNFLVRYSPVKNEEDVAELSISPSDNAVVLTNLLPGTEYVVSVSSVYEQHESTPLRGRQKTGGGGSGGGSGSGSESGSGGGSTSSGTGSETESPGSGSESGSGPSSAGSGSGSESGSGSGSSGPGSTGGSGSESGSGPGSSGTGGTATGSGSESGSGPGSSGPGSTGSGSGSESGSGSGSSGTGSTGGSGSESGSGPGSPRPGSTGTGSGSESGSGPGSSERGSAGGSGSESGSGTSESSASGSTGGSGSESGSGSESGSGSGSESGSGPESPGSGGSGSESGSGTSGSTGSGSESGSGGGSGGGSGGGIPADAVSFEEIKKYINQEVLRIFEERMAVFLSQLKLPAAMLAAQAYGRP
3 | 2.2 nM | GLP-1-Fn7-COL18NC1 (ligand) HAEGTFTSDVSSYLEGQAAKEFIAWLVKGRGGGGSGGGGTPLSPPTNLHLEANPDTGVLTVSWERSTTPDITGYRITTTPTNGQQGNSLEEVVHADQSSCTFDNLSPGLEYNVSVYTVKDDKESVPISDTIIPAGGGSGGGASSGVRLWATRQAMLGQVHEVPEGWLIFVAEQEELYVRVQNGFRKVQLEARTPLPRG
4 | 0.5 nM | GLP-1(A8G/G22E)-Fn8-p246-COL18NC1 (ligand) HGEGTFTSDVSSYLEEQAAKEFIAWLVKGRGSGGGSGGGSGGGSGGGSGSGGAVPPPTDLRFTNIGPDTMRVTWAPPPSIDLTNFLVRYSPVKNEEDVAELSISPSDNAVVLTNLLPGTEYVVSVSSVYEQHESTPLRGRQKTGGGGSGGGSGSGSESGSGGGSTSSGTGSETESPGSGSESGSGPSSAGSGSGSESGSGSGSSGPGSTGGSGSESGSGPGSSGTGGTATGSGSESGSGPGSSGPGSTGSGSGSESGSGSGSSGTGSTGGSGSESGSGPGSPRPGSTGTGSGSESGSGPGSSERGSAGGSGSESGSGTSESSASGSTGGSGSESGSGSESGSGSGSESGSGPESPGSGGSGSESGSGTSGSTGSGSESGSGGGSGGGSGGGASSGVRLWATRQAMLGQVHEVPEGWLIFVAEQEELYVRVQNGFRKVQLEARTPLPRG
5 | 0.5 nM | GLP-1(A8V/G22E)-Fn8-p246-COL18NC1 (ligand) HVEGTFTSDVSSYLEEQAAKEFIAWLVKGRGSGGGSGGGSGGGSGGGSGSGGAVPPPTDLRFTNIGPDTMRVTWAPPPSIDLTNFLVRYSPVKNEEDVAELSISPSDNAVVLTNLLPGTEYVVSVSSVYEQHESTPLRGRQKTGGGGSGGGSGSGSESGSGGGSTSSGTGSETESPGSGSESGSGPSSAGSGSGSESGSGSGSSGPGSTGGSGSESGSGPGSSGTGGTATGSGSESGSGPGSSGPGSTGSGSGSESGSGSGSSGTGSTGGSGSESGSGPGSPRPGSTGTGSGSESGSGPGSSERGSAGGSGSESGSGTSESSASGSTGGSGSESGSGSESGSGSGSESGSGPESPGSGGSGSESGSGTSGSTGSGSESGSGGGSGGGSGGGASSGVRLWATRQAMLGQVHEVPEGWLIFVAEQEELYVRVQNGFRKVQLEARTPLPRG
6 | 0.6 nM | GLP-1(A8S/G22E)-Fn8-p246-COL18NC1 (ligand) HSEGTFTSDVSSYLEEQAAKEFIAWLVKGRGSGGGSGGGSGGGSGGGSGSGGAVPPPTDLRFTNIGPDTMRVTWAPPPSIDLTNFLVRYSPVKNEEDVAELSISPSDNAVVLTNLLPGTEYVVSVSSVYEQHESTPLRGRQKTGGGGSGGGSGSGSESGSGGGSTSSGTGSETESPGSGSESGSGPSSAGSGSGSESGSGSGSSGPGSTGGSGSESGSGPGSSGTGGTATGSGSESGSGPGSSGPGSTGSGSGSESGSGSGSSGTGSTGGSGSESGSGPGSPRPGSTGTGSGSESGSGPGSSERGSAGGSGSESGSGTSESSASGSTGGSGSESGSGSESGSGSGSESGSGPESPGSGGSGSESGSGTSGSTGSGSESGSGGGSGGGSGGGASSGVRLWATRQAMLGQVHEVPEGWLIFVAEQEELYVRVQNGFRKVQLEARTPLPRG
7 | 0.4 nM | GLP-1(A8G/G22E/R36G)-Fn8-p246-COL18NC1 (ligand) HGEGTFTSDVSSYLEEQAAKEFIAWLVKGGGSGGGSGGGSGGGSGGGSGSGGAVPPPTDLRFTNIGPDTMRVTWAPPPSIDLTNFLVRYSPVKNEEDVAELSISPSDNAVVLTNLLPGTEYVVSVSSVYEQHESTPLRGRQKTGGGGSGGGSGSGSESGSGGGSTSSGTGSETESPGSGSESGSGPSSAGSGSGSESGSGSGSSGPGSTGGSGSESGSGPGSSGTGGTATGSGSESGSGPGSSGPGSTGSGSGSESGSGSGSSGTGSTGGSGSESGSGPGSPRPGSTGTGSGSESGSGPGSSERGSAGGSGSESGSGTSESSASGSTGGSGSESGSGSESGSGSGSESGSGPESPGSGGSGSESGSGTSGSTGSGSESGSGGGSGGGSGGGASSGVRLWATRQAMLGQVHEVPEGWLIFVAEQEELYVRVQNGFRKVQLEARTPLPRG
8 | 0.4 nM | GLP-1(A8G/G22E/R36S)-Fn8-p246-COL18NC1 (ligand) HGEGTFTSDVSSYLEEQAAKEFIAWLVKGSGSGGGSGGGSGGGSGGGSGSGGAVPPPTDLRFTNIGPDTMRVTWAPPPSIDLTNFLVRYSPVKNEEDVAELSISPSDNAVVLTNLLPGTEYVVSVSSVYEQHESTPLRGRQKTGGGGSGGGSGSGSESGSGGGSTSSGTGSETESPGSGSESGSGPSSAGSGSGSESGSGSGSSGPGSTGGSGSESGSGPGSSGTGGTATGSGSESGSGPGSSGPGSTGSGSGSESGSGSGSSGTGSTGGSGSESGSGPGSPRPGSTGTGSGSESGSGPGSSERGSAGGSGSESGSGTSESSASGSTGGSGSESGSGSESGSGSGSESGSGPESPGSGGSGSESGSGTSGSTGSGSESGSGGGSGGGSGGGASSGVRLWATRQAMLGQVHEVPEGWLIFVAEQEELYVRVQNGFRKVQLEARTPLPRG
9 | 0.4 nM | GLP-1(A8G/G22E/R36G)-Fn8-p285-COL18NC1 (ligand) HGEGTFTSDVSSYLEEQAAKEFIAWLVKGGGSGGGSGGGSGGGSGGGSGSGGAVPPPTDLRFTNIGPDTMRVTWAPPPSIDLTNFLVRYSPVKNEEDVAELSISPSDNAVVLTNLLPGTEYVVSVSSVYEQHESTPLRGRQKTGGGGSGGGSGSGSESGSGGGSTSSGTGSETESPGSGSESGSGPSSAGSGSGSESGSGSGSSGPGSTGGSGSESGSGPGSSGTGGTATGSGSESGSGPGSSGPGSTGSGSGSESGSGSGSSGTGSTGGSGSESGSGPGSPRPGSTGTGSGSESGSGPGSSERGSAGGSGSESGSGTSESSASGSTGGSGSESGSGSESGSGSGSESGSGPESPGSGGSGSESGSGTSGSTGSGSESGSGPGSSGPGSTGSGSGSESGSGSGSSGTGSTGGSGSESGSGGGSGGGSGGGASSGVRLWATRQAMLGQVHEVPEGWLIFVAEQEELYVRVQNGFRKVQLEARTPLPRG
10 | 0.6 nM | GLP1(A8G/G22E/R36G)-Fn8-p246-ACRP30 (ligand) HGEGTFTSDVSSYLEEQAAKEFIAWLVKGGGSGGGSGGGSGGGSGGGSGSGGAVPPPTDLRFTNIGPDTMRVTWAPPPSIDLTNFLVRYSPVKNEEDVAELSISPSDNAVVLTNLLPGTEYVVSVSSVYEQHESTPLRGRQKTGGGGSGGGSGSGSESGSGGGSTSSGTGSETESPGSGSESGSGPSSAGSGSGSESGSGSGSSGPGSTGGSGSESGSGPGSSGTGGTATGSGSESGSGPGSSGPGSTGSGSGSESGSGSGSSGTGSTGGSGSESGSGPGSPRPGSTGTGSGSESGSGPGSSERGSAGGSGSESGSGTSESSASGSTGGSGSESGSGSESGSGSGSESGSGPESPGSGGSGSESGSGTSGSTGSGSESGSGGGSGGGSGGVYRSAFSVGLETRVTVPNVPIRFTKIFYNQQNHYDGSTGKFYCNIPGLYYFSYHITVYMKDVKVSLFKKDKAVLFTYDQYQEKNVDQASGSVLLHLEVGDQVWLQVYGDGDHNGLYADNVNDSTFTGFLLYHDTN
11 | 0.4 nM | GLP-1(A8G/G22E/R36G)-Fn8-p271-COL18NC1 (ligand) HGEGTFTSDVSSYLEEQAAKEFIAWLVKGGGSGGGSGGGSGGGSGGGSGSGGAVPPPTDLRFTNIGPDTMRVTWAPPPSIDLTNFLVRYSPVKNEEDVAELSISPSDNAVVLTNLLPGTEYVVSVSSVYEQHESTPLRGRQKTGGGGSGGGSGGSGSESGSGGGSTSSGTGSETESPGGSGSESGSGGPSSAGSGGSGSESGSGGSGSSGPGSTGGGSGSESGSGGPGSSGTGGTATGGSGSESGSGGPGSSGPGSTGSGGSGSESGSGGSGSSGTGSTGGGSGSESGSGGPGSPRPGSTGTGGSGSESGSGGPGSSERGSAGGGSGSESGSGGTSESSASGSTGGGSGSESGSGGSESGSGGSGSESGSGGPESPGSGGGSGSESGSGGTSGSTGGSGSESGSGGGGSGGGSGGGASSGVRLWATRQAMLGQVHEVPEGWLIFVAEQEELYVRVQNGFRKVQLEARTPLPRG
12 | 0.5 nM | GLP-1(A8G/G22E/R36G)-Fn8-p245-COL18NC1 (ligand) HGEGTFTSDVSSYLEEQAAKEFIAWLVKGGGSGGGSGGGSGGGSGGGSGSGGAVPPPTDLRFTNIGPDTMRVTWAPPPSIDLTNFLVRYSPVKNEEDVAELSISPSDNAVVLTNLLPGTEYVVSVSSVYEQHESTPLRGRQKTGGGGSGGGSGSGSTSESGGSTSSGTGSETESPGSGSESTSGPSSAGSGSTSESGSGSGSSGPGSTGGSTSGSESGPGSSGTGGTATGSESGSTSGPGSSGPGSTGSGSTSESGSGSGSSGTGSTGGSESGSTSGPGSPRPGSTGTGSTSGSESGPGSSERGSAGGSESTSGSGTSESSASGSTGGSTSGSESGSESGSGSTSESGSGPESPGSGGSGSTSESGTSGSTGSESTSGSGGGSGGGSGGGASSGVRLWATRQAMLGQVHEVPEGWLIFVAEQEELYVRVQNGFRKVQLEARTPLPRG
13 | 0.5 nM | GLP-1(A8G/G22E/R36G)-TNCfn3-p246-COL18NC1 (ligand) HGEGTFTSDVSSYLEEQAAKEFIAWLVKGGGSGGGSGGGSGGGSGGGSGSGGRLDAPSQIEVKDVTDTTALITWFKPLAEIDGIELTYGIKDVPGDRTTIDLTEDENQYSIGNLKPDTEYEVSLISRRGDMSSNPAKETFTTGGGGSGGGSGSGSESGSGGGSTSSGTGSETESPGSGSESGSGPSSAGSGSGSESGSGSGSSGPGSTGGSGSESGSGPGSSGTGGTATGSGSESGSGPGSSGPGSTGSGSGSESGSGSGSSGTGSTGGSGSESGSGPGSPRPGSTGTGSGSESGSGPGSSERGSAGGSGSESGSGTSESSASGSTGGSGSESGSGSESGSGSGSESGSGPESPGSGGSGSESGSGTSGSTGSGSESGSGGGSGGGSGGGASSGVRLWATRQAMLGQVHEVPEGWLIFVAEQEELYVRVQNGFRKVQLEARTPLPRG

— patent US10246503B2, “Method of improving the pharmacokinetic profile of a therapeutic polypeptide and the use thereof” (BEIJING ANXINHUAIDE BIOTECH. CO., LTD, priority 2012, dated 2019)
